We go through 24 molecules from patent US20240182547A1 (MOGAM INSTITUTE FOR BIOMEDICAL RESEARCH, published 2024).

Residue numbers refer to the chain shown, from its start.

To fix the notation:
B1: 2G4 (antibody, V domains shown)
VH: EVQLVESGGGLVKPGGSLRLSCAASGFTFSSYTMHWVRQAPGKGLEWVSSITGGSSYVDYSASVKGRFTISRDNAQSSLYLQMNSLRAEDTAVYYCARDDYGSGSYSNWFDPWGQGTLVTVSS
VL: QSVLTQPPSVSGAPGQRVTISCTGSSSNIGAGYDVHWYQQVPGTAPKLLIFGSTNRPSGVPDRFSGSKSGTSASLAITGLQADDEADYYCQSYDRSLSHVFGTGTKVTVLG
notes: IgG made in Expi293; also called #1
B2: #15m (antibody, V domains shown)
VH: EVQLVESGGGVVQPGRSLRLACAASGFTFNSYAMHWVRQAPGKGLEWVSSITGGSSYVDYSASVKGRFTISRDNAQSSLYLQMNSLRAEDTAVYYCARDMYGLGSYYSPNYFDPWGQGTLVTVSS
VL: B1 VL with V41L, T44R, G52A, S53N, D83E, R95S, H99Y
notes: Germline-edited (m) form of 12B11, light chain edited; IgG; also called 12B11 (modified)
B3: 2H9 (antibody, V domains shown)
VH: QVTLKESGGGLVKPGGSLRLSCAASGFTFTSYRMHWVRQAPGKGLEWVSSITGGGNYIEYADSVKGRFTISRDNAKNSLDLQMNSLRAEDTAIYYCARDMYGLGSYYSPNYFDPWGQGTLVTVSS
VL: B1 VL with Q1S, S2Y, V3E, P8L, T71A
notes: IgG made in Expi293; also called #18; 18
B4: 12B11 (antibody, V domains shown)
VH: B2 VH
VL: B1 VL with Q1S, S2Y, V3E, V41L, T44R, G52A, S53N, D83E, R95S, H99Y
notes: IgG made in Expi293; also called #15; 15
B5: #11m (antibody, V domains shown)
VH: B1 VH with S30T, T33R, S55G, S56N, V58I, D59E, S61A, A62D
VL: B1 VL with V41L, T44R, G52A, S53N, T71A
notes: Germline-edited (m) form of 12E9, light chain edited; IgG; also called 12E9 (modified)
B6: 2H3 (antibody, V domains shown)
VH: B1 VH with L11V, K13Q, P14S, G16R, A24G
VL: B1 VL with T71A, A82T, D83E
notes: IgG made in Expi293; also called 2F5; #65
B7: 12E9 (antibody, V domains shown)
VH: B1 VH with S30T, T33R, S55G, S56N, V58I, D59E, S61A, A62D
VL: B1 VL with S2T, L4V, P7E, V41L, T44R, G52A, S53N, T71A
notes: IgG made in Expi293; also called #11; 11
B8: 3E10 (antibody, V domains shown)
VH: B3 VH with Q1E, T3Q, K5V
VL: B1 VL with S2P, T71A, A82T, D83E
notes: IgG made in Expi293; also called #20; 20
B9: #20m (antibody, V domains shown)
VH: B3 VH with Q1E, T3Q, K5V
VL: B1 VL with T71A, A82T, D83E
notes: Germline-edited (m) form of 3E10, light chain edited; IgG; also called 3E10 (modified)
B10: 1E6 (antibody, V domains shown)
VH: B3 VH with Q1E, T3Q, K5V
VL: B1 VL with V41L, T44R, G52A, S53N, T71A
notes: IgG made in Expi293; also called #22; 22
B11: 4G4 (antibody, V domains shown)
VH: B1 VH with A24G
VL: B1 VL with S25N, I29L, V41L, F51Y, G52A, S53N, T71A, A82T, D83E
notes: IgG made in Expi293; also called #10; 10
B12: #17m (antibody, V domains shown)
VH: B1 VH with K13Q, S21A
VL: B1 VL with V41L, T44R, G52A, S53N, T71A, D83E
notes: Germline-edited (m) form of 4E1, light chain edited; IgG; also called 4E1 (modified)
B13: #16m (antibody, V domains shown)
VH: B1 VH with A24G, Q115R, L118T
VL: B1 VL with P8L, V10A, A13T, V41L, T44R, G52A, S53N, D83E
notes: Germline-edited (m) form of 3H8, light chain edited; IgG; also called 3H8 (modified)
B14: 3H8 (antibody, V domains shown)
VH: B1 VH with A24G, Q115R, L118T
VL: B1 VL with S2P, P8L, V10A, A13T, V41L, T44R, G52A, S53N, D83E
notes: IgG made in Expi293; also called #16; 16
B15: 2H1 (antibody, V domains shown)
VH: B1 VH with E1Q, Q3T, V5K, L11V, K13Q, P14S, G16R
VL: B1 VL with V41L, T44R, F51Y, G52A, S53N, P61A, T71A
notes: IgG made in Expi293; also called #9
B16: 12C11 (antibody, V domains shown)
VH: B3 VH with Q1E, T3Q, K5V, G44R
VL: B1 VL with T71A, A82T, D83E
notes: IgG made in Expi293; also called #19; 19
B17: #12m (antibody, V domains shown)
VH: B1 VH with A24G, T28A, V58L, S61A, A62H, A75G, S77N, Y80F, A88T, W109Y
VL: B1 VL with T71A, A82T, D83E
notes: Germline-edited (m) form of 4F11, light chain edited; IgG; also called 4F11 (modified)
B18: 4E1 (antibody, V domains shown)
VH: B1 VH with K13Q, S21A
VL: B1 VL with Q1S, S2Y, V3E, V41L, T44R, G52A, S53N, T71A, D83E
notes: IgG made in Expi293; also called #17; 17
B19: 2E9 (antibody, V domains shown)
VH: B1 VH with E1Q, Q3T, V5K, A24G, Q76K, S77N, Y80F
VL: B1 VL with V41L, T44R, G52A, S53N, T71A
notes: IgG made in Expi293; also called #14; 14
B20: 4H1 (antibody, V domains shown)
VH: B1 VH with A24G
VL: B1 VL with T71A, S92P, G111R
notes: IgG made in Expi293; also called #3
B21: 2G1 (antibody, V domains shown)
VH: B3 VH
VL: B1 VL with V41L, T71A, A82T, D83E
notes: IgG made in Expi293; also called #21; 21
B22: 4F11 (antibody, V domains shown)
VH: B1 VH with A24G, T28A, V58L, S61A, A62H, A75G, S77N, Y80F, A88T, W109Y
VL: B1 VL with S2P, T71A, A82T, D83E
notes: IgG made in Expi293; also called #12; 12
B23: 10E7 (antibody, V domains shown)
VH: B3 VH with Q1E, T3Q, K5V, P114S
VL: B1 VL with V41L, T44R, G52A, S53N, T71A
notes: IgG made in Expi293; also called #13; 13
B24: #18m (antibody, V domains shown)
VH: B3 VH with Q1E, T3Q, K5V
VL: QSVLTQPLSVSGAPGQRVTISCTGSSSNIGAGYDVHWYQQVPGTAPKLLIFGSTNRPSGVPDRFSGSKSGASASLAITGLQADDEADYYCQSYDRSLSHVFGTGTKVTVL
notes: Germline-edited (m) form of 2H9, heavy and light chain edited; IgG; also called 2H9 (modified)

In this assay the target is DS-Cav1 (RSV F-protein, pre-form, in-house) (respiratory syncytial virus (RSV), UniProt P03420 26-513). In words: ELISA, coated DS-Cav1, IgG titrated.
Chain of DS-Cav1 (RSV F-protein, pre-form, in-house) (P03420 26-524): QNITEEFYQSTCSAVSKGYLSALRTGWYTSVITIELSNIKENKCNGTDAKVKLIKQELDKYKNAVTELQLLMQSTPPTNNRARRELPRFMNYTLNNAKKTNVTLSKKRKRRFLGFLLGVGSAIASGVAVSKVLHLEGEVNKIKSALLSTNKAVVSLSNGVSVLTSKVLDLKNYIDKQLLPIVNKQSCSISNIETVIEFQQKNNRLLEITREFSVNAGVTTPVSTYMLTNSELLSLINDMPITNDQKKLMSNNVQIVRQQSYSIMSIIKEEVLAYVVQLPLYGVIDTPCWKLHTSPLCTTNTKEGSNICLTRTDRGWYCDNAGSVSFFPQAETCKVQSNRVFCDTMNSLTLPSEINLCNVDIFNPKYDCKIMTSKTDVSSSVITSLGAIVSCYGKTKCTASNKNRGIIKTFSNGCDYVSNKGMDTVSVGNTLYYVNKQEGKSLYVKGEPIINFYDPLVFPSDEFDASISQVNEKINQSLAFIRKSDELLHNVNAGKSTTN
Regarding B1, the Kd was around 1.01 nM.
Turning to B2, the Kd is around 1.2 nM.
Then B3, with around 0.38 nM.
Turning to B4, the Kd was around 0.72 nM.
Then B5, with around 2.01 nM; and B6, with around 0.98 nM; and B7, with around 0.57 nM.
Then B8, with around 0.52 nM; and B9, with around 0.88 nM; and B10, with around 0.34 nM.
For B11, the Kd was around 0.38 nM.
Take B12: the Kd is around 1.13 nM.
In the case of B13 it was around 0.97 nM; in that of B14, around 0.51 nM.
Consider B15, for which the Kd is around 1.95 nM.
B16: the Kd is around 0.72 nM.
The molecule B17 came in with a Kd of around 1.82 nM.
Take B18: the Kd was around 0.56 nM.
As for B19, the Kd was around 0.48 nM.
As to B20, the Kd is around 1.73 nM.
For the molecule B21, the Kd is around 0.55 nM.
Molecule B22 had a Kd of around 0.43 nM.
Consider B23, for which the Kd was around 1.73 nM.
The molecule B24 displayed a Kd of around 1.84 nM.
